Laboratory results taken from patent US12637662B2, “Cells, islets, and organoids that evade immune detection and autoimmunity, methods of production and use thereof” (SALK INSTITUTE FOR BIOLOGICAL STUDIES, priority 2018, dated 2026).
“Also recorded” adds a separate entry of the source.

What was measured:
[1] = tested on: insulin-expressing cells of HILOs; assay: Mitochondrial content (MitoTracker) and insulin-GFP by flow cytometry; type: cell-based, human
Description: FIGS. 8A-8H provide images, graphs, a schematic and a diagram showing results related to WNT4 mediated insulin-GFP expression and WNT4-driven metabolic maturation. FIG. 8A presents representative images of mitochondrial content, indicated by MitoTracker (red) staining, in PBS and WNT4 treated HILOs (scale bar, 100 μm). FIG. 8B presents graphs of flow cytometry quantification of insulin expression (GFP) and mitochondrial content in HILOs treated with recombinant human WNT4 (rhWNT4), WNT5A (rhWNT5A), or conditioned medium (CM) from control or WNT5A overexpressing fibroblasts (n=3). Error bars represent SEM. *p<0.05. FIG. 8C presents a gene ontology of transcriptional changes induced by WNT4 treatment (100 ng/ml WNT4 from day26 to day33) in HILOs. […] Error bars represent SEM. *p<0.05. FIG. 8E presents a Venn diagram showing overlap between WNT4-induced increases in chromatin accessibility in GFP^+ cells and increases in HILO gene expression (upper panel), and gene ontology pathways enriched in the intersection gene set. […] For FIGS. 8G and 8H, postnatal islets (day P11-14) from WT and β cell specific ERRγKO mice were cultured with or without rhWNT4 (100 ng/ml) for >5 days.

HILO transcriptome = assay: Bulk RNA-Seq transcriptional changes in HILOs; type: cell-based, human; conditions: WNT4 100 ng/ml for days 26-33
Protocol: Total RNA was isolated from cell pellets treated with RNAlater (Invitrogen) using the RNeasy micro kit (Qiagen) and treated with DNaseI (Qiagen) for 30 minutes at room temperature. Sequencing libraries were prepared from 100-500 ng total RNA using the TruSeq RNA Sample Preparation Kit v2 (Illumina) according to the manufacturer's protocol. Briefly, mRNA was purified, fragmented, and used for first- and second-strand cDNA synthesis followed by adenylation of 3′ ends. Samples were ligated to unique adapters and PCR amplified. Libraries were then validated using the 2100 BioAnalyzer (Agilent), normalized and pooled for sequencing.
RNA-Seq libraries prepared from 3 biological replicates for each experimental condition were sequenced on the Illumina HiSeq 2500 using bar-coded multiplexing and a 100 bp read length. […] This yielded a median of 29.9M usable reads per sample. Short read sequences were mapped to a UCSC hg19 reference sequence using the RNA-Seq aligner STAR (A. Dobin et al., 2013, Bioinformatics, 29:15-21). […] Transcript expression was calculated as gene-level relative abundance in fragments per kilobase of exon model per million (fpkm) mapped fragments and employed correction for transcript abundance bias (A. Roberts et al., 2011, Bioinformatics, 27:2325-2329). […] Scale of heatmaps was determined by Z-score (FIG. 2A, FIG. 3D and FIG. 3G).

[2] = tested on: human iPSC derived cells (islet-like organoids, MCS, HILOs); assay: Glucose-stimulated insulin/c-peptide secretion assay (GSIS, ELISA); type: cell-based
Protocol: Insulin release from intact islets was monitored using batch incubation methods as reported by E. Yoshihara et al., 2016, Cell metabolism, 23:622-634. Briefly, overnight-cultured, isolated pancreatic islets (RPMI-1640 medium supplemented with 10% (v/v) fetal bovine serum and 1% (v/v) Antibiotic-Antimycotic (Gibco)) were pre-cultured at 37° C. for 30 minutes in Krebs-Ringer bicarbonate buffer (KRBB) containing 129.4 mM NaCl, 3.7 mM KCl, 2.7 mM CaCl2), 1.3 mM KH2PO4, 1.3 mM MgSO4, 24.8 mM NaHCO3 (equilibrated with 5% CO2, 95% O2, pH 7.4), 10 mM HEPES and 0.2% (v/v) BSA (fraction V, Sigma) (KRBH) with 3 mM glucose). […] After 30 minutes, the islets were pelleted by centrifugation and secreted insulin levels were determined in the medium by Enzyme Linked Immunosorbent Assay (ELISA), (Rat/mouse Insulin ELISA KIT (Millipore) and Human Insulin ELISA KIT or ultrasensitive human c-peptide ELISA Kit (Millipore) for mouse and human islets, respectively). […] After 30 minutes, the cells were pelleted by centrifugation and c-peptide levels were determined in the supernatant medium using the human c-peptide ELISA KIT (Millipore). […]
Insulin release from intact islets was monitored using batch incubation methods (Yoshihara et al., 2010, Nat. Commun. 1:127). […] After 30 min, the cells were pelleted by centrifugation and c-peptide levels were determined by human c-peptide ELISA KIT (Millipore).

B1: WNT4: recombinant human Wnt4 protein (R&D Systems), non-canonical WNT maturation factor (protein, UniProt P56705 23-351, looked up)
Protein Wnt-4: SNWLYLAKLSSVGSISEEETCEKLKGLIQRQVQMCKRNLEVMDSVRRGAQLAIEECQYQFRNRRWNCSTLDSLPVFGKVVTQGTREAAFVYAISSAGVAFAVTRACSSGELEKCGCDRTVHGVSPQGFQWSGCSDNIAYGVAFSQSFVDVRERSKGASSSRALMNLHNNEAGRKAILTHMRVECKCHGVSGSCEVKTCWRAVPPFRQVGHALKEKFDGATEVEPRRVGSSRALVPRNAQFKPHTDEDLVYLEPSPDFCEQDMRSGVLGTRGRTCNKTSKAIDGCELLCCGRGFHTAQVELAERCSCKFHWCCFVKCRQCQRLVELHTCR
- proportion of insulin expressing cells ([1]; GFP sorting, HILOs with and without WNT treatment): not affected
- mitochondrial content / number ([1]; MitoTracker, HILOs / insulin-expressing cells): increased mitochondrial number; also recorded: increased the mitochondrial content
- number of genes with decreased expression (HILO transcriptome): 1354 genes
- number of genes with increased expression (HILO transcriptome): 1581 genes
- glucose-stimulated insulin (c-peptide) secretion in vitro ([2]; 3 mM vs 20 mM glucose): showed functional maturation
- pseudo-islet formation and GSIS of commercially-available hiPSC-derived β like cells ([2]; 3D differentiation medium containing WNT4): promoted pseudo-islet formation and GSIS functionality
